The subject of data set [1] is HeLa Kyoto. The data set can be described thus: solubility change mitosis vs G1/S (difference of NP-40 vs SDS log2 ratios) (log2 ratio difference); higher = more soluble in mitosis.
Data set [2] has as its system HeLa Kyoto. In words: thermal stability score vs G1/S (z-score of summed log2 fold changes over temperatures); higher = more thermally stable than in G1/S.
Data set [3] has as its system HeLa Kyoto. The data set can be described thus: melting temperature (median over replicates), in situ; higher = more thermally stable.
Data set [4] relates to HeLa Kyoto. In words: solubility in G1/S (NP-40 vs SDS abundance) (log2 ratio); higher = more soluble. The settings on record: cell cycle stage: G1/S.
The mark [5] stands for this setting: cell cycle stage: early G1 (4.5 h after nocodazole release).
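Wherever melting temperature (median over replicates), in situ is given: HeLa Kyoto cells synchronized by double thymidine or nocodazole block, proteins quantified by TMT10plex mass spectrometry, three independent biological replicates.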
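Wherever solubility change mitosis vs G1/S (difference of NP-40 vs SDS log2 ratios) is given: synchronized HeLa Kyoto cells (double thymidine block for G1/S, nocodazole release for mitosis), protein amounts in NP-40 versus SDS lysates quantified by mass spectrometry, three biological replicates.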
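Wherever solubility in G1/S (NP-40 vs SDS abundance) is given: HeLa Kyoto cells arrested at G1/S by double thymidine block, proteins quantified by TMT10plex mass spectrometry in mild NP-40 versus SDS extracts, three biological replicates.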
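Wherever thermal stability score vs G1/S (z-score of summed log2 fold changes over temperatures) is given: synchronized HeLa Kyoto cells, proteins quantified by TMT10plex mass spectrometry, three biological replicates, mitosis taken 0.5 h after nocodazole release, G1/S directly after double thymidine block.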

Chain of CREBBP (chain, as listed by the source): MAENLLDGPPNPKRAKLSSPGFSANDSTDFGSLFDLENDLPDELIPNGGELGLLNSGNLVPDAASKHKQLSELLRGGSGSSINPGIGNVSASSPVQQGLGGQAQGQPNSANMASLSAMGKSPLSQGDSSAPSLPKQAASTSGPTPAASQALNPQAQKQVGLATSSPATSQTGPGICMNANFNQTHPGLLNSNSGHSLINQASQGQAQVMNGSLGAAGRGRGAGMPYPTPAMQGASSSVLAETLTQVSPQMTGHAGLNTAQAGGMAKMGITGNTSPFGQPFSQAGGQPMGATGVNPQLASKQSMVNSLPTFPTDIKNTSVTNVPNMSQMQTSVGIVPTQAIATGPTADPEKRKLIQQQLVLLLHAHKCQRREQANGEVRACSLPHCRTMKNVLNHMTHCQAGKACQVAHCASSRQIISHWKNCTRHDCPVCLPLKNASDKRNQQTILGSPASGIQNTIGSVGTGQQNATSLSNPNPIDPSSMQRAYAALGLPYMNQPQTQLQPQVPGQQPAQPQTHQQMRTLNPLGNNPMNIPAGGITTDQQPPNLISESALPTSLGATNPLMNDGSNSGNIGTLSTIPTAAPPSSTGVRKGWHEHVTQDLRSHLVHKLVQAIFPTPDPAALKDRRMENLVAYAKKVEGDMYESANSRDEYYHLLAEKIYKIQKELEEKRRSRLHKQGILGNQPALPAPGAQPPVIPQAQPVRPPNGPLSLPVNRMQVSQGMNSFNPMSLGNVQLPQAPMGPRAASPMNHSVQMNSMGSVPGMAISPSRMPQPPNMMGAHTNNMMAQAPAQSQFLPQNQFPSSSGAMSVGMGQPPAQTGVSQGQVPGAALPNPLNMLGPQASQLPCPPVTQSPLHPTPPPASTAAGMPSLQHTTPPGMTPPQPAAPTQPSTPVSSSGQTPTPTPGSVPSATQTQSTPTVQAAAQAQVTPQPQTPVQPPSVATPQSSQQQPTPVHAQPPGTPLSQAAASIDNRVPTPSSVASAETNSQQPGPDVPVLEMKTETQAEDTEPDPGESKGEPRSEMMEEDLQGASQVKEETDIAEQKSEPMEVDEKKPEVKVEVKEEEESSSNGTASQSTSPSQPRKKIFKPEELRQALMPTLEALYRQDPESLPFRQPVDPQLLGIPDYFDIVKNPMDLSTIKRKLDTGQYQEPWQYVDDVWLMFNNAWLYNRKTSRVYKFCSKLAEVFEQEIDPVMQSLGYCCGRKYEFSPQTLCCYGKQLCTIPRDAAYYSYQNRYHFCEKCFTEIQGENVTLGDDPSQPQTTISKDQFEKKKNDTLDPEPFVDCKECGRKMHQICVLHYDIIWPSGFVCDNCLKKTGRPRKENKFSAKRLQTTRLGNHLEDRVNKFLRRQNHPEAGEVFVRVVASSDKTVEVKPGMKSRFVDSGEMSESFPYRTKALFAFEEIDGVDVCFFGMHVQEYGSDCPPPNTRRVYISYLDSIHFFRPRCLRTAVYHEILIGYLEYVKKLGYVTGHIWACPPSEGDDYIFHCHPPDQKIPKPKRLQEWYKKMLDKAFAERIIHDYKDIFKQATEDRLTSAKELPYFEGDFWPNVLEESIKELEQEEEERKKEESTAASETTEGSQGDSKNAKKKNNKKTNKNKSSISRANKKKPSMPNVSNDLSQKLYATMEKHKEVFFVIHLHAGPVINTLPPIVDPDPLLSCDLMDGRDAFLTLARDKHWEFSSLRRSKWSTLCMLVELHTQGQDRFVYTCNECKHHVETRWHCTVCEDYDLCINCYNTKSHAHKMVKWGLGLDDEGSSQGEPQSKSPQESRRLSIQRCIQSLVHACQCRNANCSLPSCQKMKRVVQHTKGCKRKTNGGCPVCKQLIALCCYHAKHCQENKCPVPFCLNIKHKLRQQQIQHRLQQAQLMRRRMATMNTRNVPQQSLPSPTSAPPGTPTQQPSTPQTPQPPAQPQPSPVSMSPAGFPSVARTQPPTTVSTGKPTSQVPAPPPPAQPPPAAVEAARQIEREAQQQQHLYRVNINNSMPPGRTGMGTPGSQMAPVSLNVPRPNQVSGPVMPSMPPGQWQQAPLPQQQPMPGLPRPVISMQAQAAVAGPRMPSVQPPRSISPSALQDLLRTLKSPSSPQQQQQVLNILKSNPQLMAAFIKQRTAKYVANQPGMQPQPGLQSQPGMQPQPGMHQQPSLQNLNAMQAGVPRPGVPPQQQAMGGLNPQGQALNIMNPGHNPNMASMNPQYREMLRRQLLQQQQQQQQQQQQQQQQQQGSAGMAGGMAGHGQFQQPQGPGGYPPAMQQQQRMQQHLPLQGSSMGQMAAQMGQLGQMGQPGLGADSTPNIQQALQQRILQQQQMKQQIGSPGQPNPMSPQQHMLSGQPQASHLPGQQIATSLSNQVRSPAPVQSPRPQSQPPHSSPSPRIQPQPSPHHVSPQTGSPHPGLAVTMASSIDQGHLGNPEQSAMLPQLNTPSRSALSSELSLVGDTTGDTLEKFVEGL

Take “MAAPSAGSWSTFQHKELMAADRGRRILGVCGMHPHHQETLKKNRVVLAKQLLLSELLEHLLEKDIITLEMRELIQAKVGSFSQNVELLNLLPKRGPQAFDAFCEALRETKQGHLEDMLLTTLSGLQHVLPPLSCDYDLSLPFPVCESCPLYKKLRLSTDTVEHSLDNKDGPVCLQVKPCTPEFYQTHFQLAYRLQSRPRGLALVLSNVHFTGEKELEFRSGGDVDHSTLVTLFKLLGYDVHVLCDQTAQEMQEKLQNFAQLPAHRVTDSCIVALLSHGVEGAIYGVDGKLLQLQEVFQLFDNANCPSLQNKPKMFFIQACRGDETDRGVDQQDGKNHAGSPGCEESDAGKEKLPKMRLPTRSDMICGYACLKGTAAMRNTKRGSWYIEALAQVFSERACDMHVADMLVKVNALIKDREGYAPGTEFHRCKEMSEYCSTLCRHLYLFPGHPPT [CASP2]”: the “solubility change mitosis (log2)” value in data set [1] was -0.0504. Further, the thermal stability score in data set [2] (setting [5]) was 0.766; in data set [2] (cell cycle stage: mitosis) it was 3.33. Moreover, the melting temperature in data set [3] (cell cycle stage: G1/S) came out at 50.2 °C; in data set [3] (cell cycle stage: mitosis) it was 51.5 °C. Also, in data set [4], the “solubility in G1/S (log2)” value is 0.0545.
“MPELAVQKVVVHPLVLLSVVDHFNRIGKVGNQKRVVGVLLGSWQKKVLDVSNSFAVPFDEDDKDDSVWFLDHDYLENMYGMFKKVNARERIVGWYHTGPKLHKNDIAINELMKRYCPNSVLVIIDVKPKDLGLPTEAYISVEEVHDDGTPTSKTFEHVTSEIGAEEAEEVGVEHLLRDIKDTTVGTLSQRITNQVHGLKGLNSKLLDIRSYLEKVATGKLPINHQIIYQLQDVFNLLPDVSLQEFVKAFYLKTNDQMVVVYLASLIRSVVALHNLINNKIANRDAEKKEGQEKEESKKDRKEDKEKDKDKEKSDVKKEEKKEKK [PSMD7]”: the “solubility change mitosis (log2)” value in data set [1] amounted to 0.00337. Moreover, the thermal stability score in data set [2] (setting [5]) is -0.335; in data set [2] (cell cycle stage: mitosis), -1.17. Moreover, the figures for the melting temperature in data set [3] (cell cycle stage: G1/S) and in data set [3] (cell cycle stage: mitosis) were 53.9 °C and 51.6 °C, respectively. The “solubility in G1/S (log2)” value in data set [4] was 0.121.
Take “MAVTDSLSRAATVLATVLLLSFGSVAASHIEDQAEQFFRSGHTNNWAVLVCTSRFWFNYRHVANTLSVYRSVKRLGIPDSHIVLMLADDMACNPRNPKPATVFSHKNMELNVYGDDVEVDYRSYEVTVENFLRVLTGRIPPSTPRSKRLLSDDRSNILIYMTGHGGNGFLKFQDSEEITNIELADAFEQMWQKRRYNELLFIIDTCQGASMYERFYSPNIMALASSQVGEDSLSHQPDPAIGVHLMDRYTFYVLEFLEEINPASQTNMNDLFQVCPKSLCVSTPGHRTDLFQRDPKNVLITDFFGSVRKVEITTETIKLQQDSEIMESSYKEDQMDEKLMEPLKYAEQLPVAQIIHQKPKLKDWHPPGGFILGLWALIIMVFFKTYGIKHMKFIF [PIGK]”: the “solubility change mitosis (log2)” value in data set [1] was -0.0814. The values for the thermal stability score in data set [2] (setting [5]) and in data set [2] (cell cycle stage: mitosis) were 1.4 and 0.424, respectively. In addition, the melting temperature in data set [3] (cell cycle stage: G1/S) and in data set [3] (cell cycle stage: mitosis) was 53.5 °C throughout. Moreover, in data set [4], the “solubility in G1/S (log2)” value was -0.134.
Take “MGNGGRSGLQQGKGNVDGVAATPTAASASCQYRCIECNQEAKELYRDYNHGVLKITICKSCQKPVDKYIEYDPVIILINAILCKAQAYRHILFNTQINIHGKLCIFCLLCEAYLRWWQLQDSNQNTAPDDLIRYAKEWDFYRMFAIAALEQTAYFIGIFTFLWVERPMTAKKKPNFILLLKALLLSSYGKLLLIPAVIWEHDYTSVCLKLIKVFVLTSNFQAIRVTLNINRKLSFLAVLSGLLLESIMVYFFQSMEWDVGSDYAIFKSQDF [ARV1]”: the “solubility change mitosis (log2)” value in data set [1] is -0.0477. Besides, the figures for the thermal stability score in data set [2] (setting [5]) and in data set [2] (cell cycle stage: mitosis) were -0.687 and -0.97, respectively. The same substance had a melting temperature in data set [3] (cell cycle stage: mitosis) of 49.2 °C. Further, in data set [4], the “solubility in G1/S (log2)” value is -0.481.
As to CREBBP, in data set [1], the “solubility change mitosis (log2)” value stood at 0.0153. For the same substance, the thermal stability score in data set [2] (setting [5]) was -0.935; in data set [2] (cell cycle stage: mitosis) it was -0.841. Further, the melting temperature in data set [3] (cell cycle stage: G1/S) was determined as 52 °C; in data set [3] (cell cycle stage: mitosis) it was 53.2 °C. Also, the “solubility in G1/S (log2)” value in data set [4] is -0.265.
For “MEEECRVLSIQSHVIRGYVGNRAATFPLQVLGFEIDAVNSVQFSNHTGYAHWKGQVLNSDELQELYEGLRLNNMNKYDYVLTGYTRDKSFLAMVVDIVQELKQQNPRLVYVCDPVLGDKWDGEGSMYVPEDLLPVYKEKVVPLADIITPNQFEAELLSGRKIHSQEEALRVMDMLHSMGPDTVVITSSDLPSPQGSNYLIVLGSQRRRNPAGSVVMERIRMDIRKVDAVFVGTGDLFAAMLLAWTHKHPNNLKVACEKTVSTLHHVLQRTIQCAKAQAGEGVRPSPMQLELRMVQSKRDIEDPEIVVQATVL [PDXK]”, the “solubility change mitosis (log2)” value in data set [1] is -0.0576. The thermal stability score came to 0.134 in data set [2] (setting [5]) and 0.0482 in data set [2] (cell cycle stage: mitosis). Further, the values for the melting temperature in data set [3] (cell cycle stage: G1/S) and in data set [3] (cell cycle stage: mitosis) were 55.5 °C and 56.3 °C, respectively. Further, in data set [4], the “solubility in G1/S (log2)” value was determined as 0.315.
For “MPKPINVRVTTMDAELEFAIQPNTTGKQLFDQVVKTVGLREVWFFGLQYVDSKGYSTWLKLNKKVTQQDVKKENPLQFKFRAKFFPEDVSEELIQEITQRLFFLQVKEAILNDEIYCPPETAVLLASYAVQAKYGDYNKEIHKPGYLANDRLLPQRVLEQHKLTKEQWEERIQNWHEEHRGMLREDSMMEYLKIAQDLEMYGVNYFEIKNKKGTELWLGVDALGLNIYEHDDKLTPKIGFPWSEIRNISFNDKKFVIKPIDKKAPDFVFYAPRLRINKRILALCMGNHELYMRRRKPDTIEVQQMKAQAREEKHQKQLERAQLENEKKKREIAEKEKERIEREKEELMERLKQIEEQTIKAQKELEEQTRKALELDQERKRAKEEAERLEKERRAAEEAKSAIAKQAADQMKNQEQLAAELAEFTAKIALLEEAKKKKEEEATEWQHKAFAAQEDLEKTKEELKTVMSAPPPPPPPPVIPPTENEHDEHDENNAEASAELSNEGVMNHRSEEERVTETQKNERVKKQLQALSSELAQARDETKKTQNDVLHAENVKAGRDKYKTLRQIRQGNTKQRIDEFEAM [RDX]”, the “solubility change mitosis (log2)” value in data set [1] was 0.0339. Moreover, the thermal stability score in data set [2] (setting [5]) amounted to 0.702; in data set [2] (cell cycle stage: mitosis) it was 0.805. For the same substance, the values for the melting temperature in data set [3] (cell cycle stage: G1/S) and in data set [3] (cell cycle stage: mitosis) were 57.1 °C and 56.4 °C, respectively. Also, the “solubility in G1/S (log2)” value in data set [4] is 0.0601.
As for PCNT, the “solubility change mitosis (log2)” value in data set [1] was -0.162. Besides, the figures for the thermal stability score in data set [2] (setting [5]) and in data set [2] (cell cycle stage: mitosis) were 2.3 and 2.45, respectively. Besides, the melting temperature in data set [3] (cell cycle stage: G1/S) was determined as 50.8 °C; in data set [3] (cell cycle stage: mitosis), 52.9 °C. Moreover, in data set [4], the “solubility in G1/S (log2)” value is -0.221.

For the origin of these results see the supplement of paper PMC5998384.
